The series “atomic force microscopy” concerns the molecule itself. The experiment in a line: atomic force microscopy.
The series “native MS” deals with the molecule itself. The experiment in a line: native MS.
Series [1] concerns the molecule itself. The experiment in a line: negative-stain electron microscopy.
Series [2] deals with the molecule itself.
The series “cross-linking” deals with the molecule itself. Briefly: cross-linking.
Series [3] has as its target Cys-less MtrE C21S (Neisseria gonorrhoeae) (UniProt Q51006). The experiment in a line: cross-linking.

Where “and” joins values, the source holds several entries; their conditions need not be identical. Equal values may be shown once. Read-outs that look alike come from different tables or passages of the source.

B1: MtrC α-helical coiled-coil hairpin domain (domain or fragment, Neisseria gonorrhoeae, UniProt P43505 103-183, looked up)
chain: IDSSTYEAGLESARAQLATAQATLAKADADLARYKPLVSADAISKQEYDAAVTAKRSAEASVKAAQAAIKSAGINLNRSRI
For the molecule B1, the stoichiometry N (usually a count of units in the complex or per binding partner) in the series “atomic force microscopy” was 6; in “native MS”, 2.

B2: MacA (natural protein, E. coli, UniProt P75830 1-371, looked up)
chain: MKKRKTVKKRYVIALVIVIAGLITLWRILNAPVPTYQTLIVRPGDLQQSVLATGKLDALRKVDVGAQVSGQLKTLSVAIGDKVKKDQLLGVIDPEQAENQIKEVEATLMELRAQRQQAEAELKLARVTYSRQQRLAQTKAVSQQDLDTAATEMAVKQAQIGTIDAQIKRNQASLDTAKTNLDYTRIVAPMAGEVTQITTLQGQTVIAAQQAPNILTLADMSAMLVKAQVSEADVIHLKPGQKAWFTVLGDPLTRYEGQIKDVLPTPEKVNDAIFYYARFEVPNPNGLLRLDMTAQVHIQLTDVKNVLTIPLSALGDPVGDNRYKVKLLRNGETREREVTIGARNDTDVEIVKGLEAGDEVVIGEAKPGAAQ
As to B2, in series [1], the “stoichiometry N” value stood at 6.

B3: MtrD (natural protein, Neisseria gonorrhoeae, UniProt Q51073 1-1067, looked up)
chain: MAKFFIDRPIFAWVISIFIIAAGIFGIKSLPVSQYPSVAAPTITLHAIYPGASAQVMEGSVLSVIERNMNGVEGLDYMSTSADSSGSGSVSLTFTPDTDENLAQVEVQNKLSEVLRTLPATVQQYGVTVSKARSNFLMIVMLSSDVQSTEEMNDYAQRNVVPELQRIEGVGQVRLFGAQRAMRIWVDPKKLQNYNLSFADVGSALSAQNIQISAGSIGSLPAVRGQTVTATVTAQGQLGTAEEFGNVILRANTDGSNIYLKDVAKVGLGMEDYSSSTRLNGVNTTGMAVMLSNSGNAMATAKAVKERLAVLEKYFPQGMSWKTPYDTSKFVEISIEKVIHTLIEAMVLVFVVMYLFLQNIRYTLIPTIVVPISLLGGFAFISYMGMSINVLTMFAMILVIGIVVDDAIVVVENVERIMAGEGLPPKEATKKAMGQISGAVIGITAVLISVFVPLAMFSGAAGNIYKQFALTMASSIAFSAFLALTLTPALCATMLKTIPKGHHEEKKGFFGWFNKKFDSWTHGYEGRVAKVLRKTFRMMVVYIGLAVVGVFLFMRLPTSFLPTEDQGFVMVSVQLPAGATKERTDATLAQVTQLAKSIPEIENIITVSGFSFSGSGQNMAMGFAIFKDWNERTASGSDAVAVAGKLTGMMMGTLKDGFGIAVVPPPILELGNGSGLSINLQDRNNTGHTGIAGEGNELIQKMRASGLFDPSTVRAGGLEDSPQLKIDINRAAAAAQGISFADIRTALASALSSSYVSDFPNQGRLQRVMVQADEDARMQPADILNLTVPNKSGVAVPLSTIATVSWENGTEQSVRFNGYPSMKLSASPATGVSTGQAMEAVQKMVDELGGGYSFEWGGQSSEEAKGGSQTLILYGLAVAAVFLVLAALYESWSIPLAVILVIPLGLIGAAAGVTGRNLFEGLLGSVPSFANDIYFQVGFVTVMGLSAKNAILIIEFAKDLQAQGKSAVEAALEAARLRFRPIIMTSFAFILGVVPLYIAAGASSASQRAIGTTVFWGMLVGTLLSVFLVPLFYVVVRKFFKETAHEHEMAVRHASKAGITGSDDKQY
Turning to B3, the “stoichiometry N” value in series [2] stood at 3.

B4: NT-MtrC D143C (domain or fragment, Neisseria gonorrhoeae, UniProt P43505 35-412, looked up)
chain: GQPAGREAPAPVVGVVTVHPQTVALTVELPGRLESLRTADVRAQVGGIIQKRLFQEGSYVRAGQPLYQIDSSTYEAGLESARAQLATAQATLAKADADLARYKPLVSACAISKQEYDAAVTAKRSAEASVKAAQAAIKSAGINLNRSRITAPISGFIGQSKVSEGTLLNAGDTTVLATIRQTNPMYVNVTQSASEVMKLRRQIAEGKLLAADGAIAVGIKFDDGTVYPEKGRLLFADPTVDESTGQITLRAAVSNDQNILMPGLYVRVLMDQVAADNAFIVPQQAVTRGAKDTVMIVNAQGGMEPREVTVAQQQGTNWIVTSGLKDGDKVVVEGISIAGMTGAKKVTPKEWAPSENQAAAPQAGVQTASEAKPASEAK
With B4, in the series “cross-linking”, the “stoichiometry N” value came out at 2. The stoichiometry N (MtrC per MtrE) in series [3] amounted to 2.

B5: NT-MtrC, the N-terminal truncated (Δ1–34) MtrC (domain or fragment, Neisseria gonorrhoeae, UniProt P43505 35-412, looked up)
chain: GQPAGREAPAPVVGVVTVHPQTVALTVELPGRLESLRTADVRAQVGGIIQKRLFQEGSYVRAGQPLYQIDSSTYEAGLESARAQLATAQATLAKADADLARYKPLVSADAISKQEYDAAVTAKRSAEASVKAAQAAIKSAGINLNRSRITAPISGFIGQSKVSEGTLLNAGDTTVLATIRQTNPMYVNVTQSASEVMKLRRQIAEGKLLAADGAIAVGIKFDDGTVYPEKGRLLFADPTVDESTGQITLRAAVSNDQNILMPGLYVRVLMDQVAADNAFIVPQQAVTRGAKDTVMIVNAQGGMEPREVTVAQQQGTNWIVTSGLKDGDKVVVEGISIAGMTGAKKVTPKEWAPSENQAAAPQAGVQTASEAKPASEAK
Turning to B5, in the series “native MS”, the “stoichiometry N” value is 6 and 5.

B6: NT-MtrC E149C (domain or fragment, Neisseria gonorrhoeae, UniProt P43505 35-412, looked up)
chain: GQPAGREAPAPVVGVVTVHPQTVALTVELPGRLESLRTADVRAQVGGIIQKRLFQEGSYVRAGQPLYQIDSSTYEAGLESARAQLATAQATLAKADADLARYKPLVSADAISKQCYDAAVTAKRSAEASVKAAQAAIKSAGINLNRSRITAPISGFIGQSKVSEGTLLNAGDTTVLATIRQTNPMYVNVTQSASEVMKLRRQIAEGKLLAADGAIAVGIKFDDGTVYPEKGRLLFADPTVDESTGQITLRAAVSNDQNILMPGLYVRVLMDQVAADNAFIVPQQAVTRGAKDTVMIVNAQGGMEPREVTVAQQQGTNWIVTSGLKDGDKVVVEGISIAGMTGAKKVTPKEWAPSENQAAAPQAGVQTASEAKPASEAK
On to B6, for which the “stoichiometry N” value in the series “cross-linking” was found to be 2. The molecule also gave a stoichiometry N (MtrC per MtrE) in series [3] of 2.

B7: MtrE, wild type (natural protein, Neisseria gonorrhoeae, UniProt Q51006 1-467, looked up)
chain: CTMIPQYEQPKVEVAETFQNDTSVSSIRAVDLGWHDYFADPRLQKLIDIALERNTSLRTAVLNSEIYRKQYMIERNNLLPTLAANANGSRQGSLSGGNVSSSYNVGLGAASYELDLFGRVRSSSEAALQGYFASVANRDAAHLSLIATVAKAYFNERYAEEAMSLAQRVLKTREETYNAVRIAVQGRRDFRRRPAPAEALIESAKADYAHAARSREQARNALATLINRPIPEDLPAGLPLDKQFFVEKLPAGLSSEVLLDRPDIRAAEHALKQANANIGAARAAFFPSIRLTGSVGTGSVELGGLFKSGTGVWAFAPSITLPIFTWGTNKANLDVAKLRQQAQIVAYESAVQSAFQDVANALAAREQLDKAYDALSKQSRASKEALRLVGLRYKHGVSGALDLLDAERSSYSAEGAALSAQLTRAENLADLYKALGGGLKRDTQTGK
Regarding B7, the “stoichiometry N” value in series [2] was 3.

Source of the values: PMC3143649 (The Journal of Biological Chemistry, 2011).
